pKd: −log10 of the molar value.
How the values were obtained:
[1] = target: GST-KRIT1 (residues 170–198), wild type (human) (UniProt O00522); assay: SPR
[2] = target: GST-integrin β1 fusion protein (residues 752 to 798), wild type (UniProt P05556); assay: SPR
Chain of GST-integrin β1 fusion protein (residues 752 to 798), wild type (P05556 752-798): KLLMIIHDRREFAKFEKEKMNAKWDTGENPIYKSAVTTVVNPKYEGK

Chain of GST-KRIT1 (residues 170–198), wild type (human) (O00522 170-198): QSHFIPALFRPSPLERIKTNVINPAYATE

pKd [1]: 5.91
pKd [2]: 5.30
Substance: ICAP1 (analyte of the surface plasmon resonance) (from UniProt O14713 1-200) (domain or fragment)

Reference: article PMC3684052
